Experimental data as given in PMC9523049, “Structures of Mec1/ATR kinase endogenously stimulated by different genotoxins” (Cell Discovery, 2022).

Biological target: T1, Mec1 (yeast homolog of ATR), wild type, activated in vivo by HU or MMS (yeast (endogenous in cultured yeast …, UniProt P38111 1-2368))
T1 construct: Mec1 kinase, yeast homolog of human ATR, wild type, endogenous; purified together with Ddc2; they may stand in the supplementary file; also called ATR/Mec1; Mec1/ATR kinase; source: endogenously purified from cultured yeast cells treated with HU or MMS
T1 sequence (P38111 whole entry): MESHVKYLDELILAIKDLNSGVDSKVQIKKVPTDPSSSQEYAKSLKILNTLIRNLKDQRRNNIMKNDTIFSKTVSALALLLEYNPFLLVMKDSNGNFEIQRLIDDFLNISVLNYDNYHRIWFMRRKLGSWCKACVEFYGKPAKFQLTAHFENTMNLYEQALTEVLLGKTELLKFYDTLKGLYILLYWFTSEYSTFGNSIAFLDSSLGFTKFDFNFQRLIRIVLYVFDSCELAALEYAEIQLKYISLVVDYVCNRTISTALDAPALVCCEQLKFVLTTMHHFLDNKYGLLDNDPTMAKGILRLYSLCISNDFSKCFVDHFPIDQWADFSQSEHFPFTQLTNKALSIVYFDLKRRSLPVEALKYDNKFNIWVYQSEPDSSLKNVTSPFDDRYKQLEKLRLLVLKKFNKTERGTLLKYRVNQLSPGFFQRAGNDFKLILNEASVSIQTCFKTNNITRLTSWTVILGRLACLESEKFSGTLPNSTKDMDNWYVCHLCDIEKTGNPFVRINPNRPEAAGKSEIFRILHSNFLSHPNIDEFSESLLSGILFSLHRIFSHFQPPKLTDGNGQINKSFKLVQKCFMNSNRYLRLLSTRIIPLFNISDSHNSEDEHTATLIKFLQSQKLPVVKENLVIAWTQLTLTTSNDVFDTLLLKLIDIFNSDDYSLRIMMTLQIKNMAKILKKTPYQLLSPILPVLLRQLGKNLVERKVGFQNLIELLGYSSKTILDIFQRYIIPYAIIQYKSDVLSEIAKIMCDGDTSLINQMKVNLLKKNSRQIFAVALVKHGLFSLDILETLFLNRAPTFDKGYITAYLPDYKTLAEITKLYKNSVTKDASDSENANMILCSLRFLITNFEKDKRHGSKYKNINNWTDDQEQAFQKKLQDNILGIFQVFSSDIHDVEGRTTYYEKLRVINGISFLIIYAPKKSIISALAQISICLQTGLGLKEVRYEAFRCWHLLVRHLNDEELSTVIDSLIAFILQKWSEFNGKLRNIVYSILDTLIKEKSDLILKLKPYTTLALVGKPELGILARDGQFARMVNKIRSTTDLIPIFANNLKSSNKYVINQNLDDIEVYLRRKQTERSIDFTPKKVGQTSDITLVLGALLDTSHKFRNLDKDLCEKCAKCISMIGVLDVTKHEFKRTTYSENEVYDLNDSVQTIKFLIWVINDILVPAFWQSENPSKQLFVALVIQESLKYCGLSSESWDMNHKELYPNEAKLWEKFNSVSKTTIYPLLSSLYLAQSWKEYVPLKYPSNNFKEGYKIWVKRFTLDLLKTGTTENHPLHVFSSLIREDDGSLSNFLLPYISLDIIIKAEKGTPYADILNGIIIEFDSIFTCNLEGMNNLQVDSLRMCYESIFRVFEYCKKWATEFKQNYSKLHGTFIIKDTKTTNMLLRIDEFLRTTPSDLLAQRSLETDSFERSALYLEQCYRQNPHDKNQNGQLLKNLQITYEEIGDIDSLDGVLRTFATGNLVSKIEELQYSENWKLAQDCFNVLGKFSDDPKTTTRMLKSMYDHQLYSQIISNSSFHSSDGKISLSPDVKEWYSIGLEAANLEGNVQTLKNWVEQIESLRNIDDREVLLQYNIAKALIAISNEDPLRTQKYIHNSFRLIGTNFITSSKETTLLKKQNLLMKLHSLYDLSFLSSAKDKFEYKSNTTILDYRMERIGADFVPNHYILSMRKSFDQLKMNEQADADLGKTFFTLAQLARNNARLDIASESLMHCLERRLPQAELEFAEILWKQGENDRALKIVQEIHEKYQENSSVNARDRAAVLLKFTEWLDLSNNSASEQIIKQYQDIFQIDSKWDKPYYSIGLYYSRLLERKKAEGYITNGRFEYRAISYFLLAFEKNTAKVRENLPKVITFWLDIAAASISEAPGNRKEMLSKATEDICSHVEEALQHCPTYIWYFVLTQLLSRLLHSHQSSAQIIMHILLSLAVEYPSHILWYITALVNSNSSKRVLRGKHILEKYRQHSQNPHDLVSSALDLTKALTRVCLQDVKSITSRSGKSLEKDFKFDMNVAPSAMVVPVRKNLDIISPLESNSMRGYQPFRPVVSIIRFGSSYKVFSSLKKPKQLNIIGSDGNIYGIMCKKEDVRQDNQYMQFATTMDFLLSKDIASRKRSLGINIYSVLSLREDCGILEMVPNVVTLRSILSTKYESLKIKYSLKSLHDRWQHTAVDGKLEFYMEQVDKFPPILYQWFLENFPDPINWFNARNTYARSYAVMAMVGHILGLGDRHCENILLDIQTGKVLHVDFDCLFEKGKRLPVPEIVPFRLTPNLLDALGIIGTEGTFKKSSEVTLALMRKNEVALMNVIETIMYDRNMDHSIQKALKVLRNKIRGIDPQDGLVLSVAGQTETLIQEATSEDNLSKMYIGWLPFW
Assay: cryo-EM structure; Mec1-Ddc2 complex endogenously purified from yeast cells treated with HU (HU-Dimer1, HU-Dimer2) or MMS (MMS-Dimer)
Conditions: both partners purified

binding result: binds
B1: Ddc2 (yeast homolog of ATRIP) (natural protein, UniProt Q04377 1-747, looked up)
chain: MRRETVGEFSSDDDDDILLELGTRPPRFTQIPPSSAALQTQIPTTLEVTTTTLNNKQSKNDNQLVNQLNKAQGEASMLRDKINFLNIEREKEKNIQAVKVNELQVKHLQELAKLKQELQKLEDEKKFLQMEARGKSKREVITNVKPPSTTLSTNTNTITPDSSSVAIEAKPQSPQSKKRKISDNLLKKNMVPLNPNRIIPDETSLFLESILLHQIIGADLSTIEILNRLKLDYITEFKFKNFVIAKGAPIGKSIVSLLLRCKKTLTLDRFIDTLLEDIAVLIKEISVHPNESKLAVPFLVALMYQIVQFRPSATHNLALKDCFLFICDLIRIYHHVLKVPIHESNMNLHVEPQIFQYELIDYLIISYSFDLLEGILRVLQSHPKQTYMEFFDENILKSFEFVYKLALTISYKPMVNVIFSAVEVVNIITSIILNMDNSSDLKSLISGSWWRDCITRLYALLEKEIKSGDVYNENVDTTTLHMSKYHDFFGLIRNIGDNELGGLISKLIYTDRLQSVPRVISKEDIGMDSDKFTAPIIGYKMEKWLLKLKDEVLNIFENLLMIYGDDATIVNGEMLIHSSKFLSREQALMIERYVGQDSPNLDLRCHLIEHTLTIIYRLWKDHFKQLREEQIKQVESQLIMSLWRFLVCQTETVTANEREMRDHRHLVDSLHDLTIKDQASYYEDAFEDLPEYIEEELKMQLNKRTGRIMQVKYDEKFQEMARTILESKSFDLTTLEEADSLYISMGL
notes: Ddc2, yeast homolog of human ATRIP, endogenous; purified together with Mec1; they may stand in the supplementary file; source: endogenously purified from cultured yeast cells treated with HU or MMS
